Test results as given in US20100015685A1, “LACTOBACILLUS N-DEOXYRIBOSYL TRANSFERASES, CORRESPONDING NUCLEOTIDE SEQUENCES AND THEIR USES” (INSTITUT PASTEUR, priority 2001, published 2010).

What was measured:
PAK 26 strain = assay: Nutritional screening in PAK 26 strain to distinguish deoxyribosyltransferase I and II activities; format: cell-based, Escherichia coli; conditions: plasmid of selected transforming clones; deoxyguanosine and thymine as sources of guanine and thymidine
Text: Preferably this strain is incapable of growing in the presence of deoxyguanosine as a source of guanine. In preferred manner, it is the PAK 6 strain. • (ii) transfer of exogenous DNA, preferably in the form of an expression vector, into the bacterium, the exogenous DNA being capable of comprising a sequence coding for a deoxyribosyltransferase. • (iii) culture of the bacteria obtained in Stage (ii) on a medium containing deoxyguanosine. • (iv) isolation of the exogenous DNA transferred into the bacteria of Stage (iii) which have developed on the medium containing deoxyguanosine. The present invention also provides a nutritional screening for distinguishing the deoxyribosyltransferase I and II activities, preferably in particular for distinguishing between the ntd and ptd polypeptides according to the invention. This second screening comprises the stages of: • (i) obtaining a bacterial strain such as for example Escherichia coli, auxotrophic for guanine and thymidine. Preferably, this strain is incapable of growing in the presence of guanine and thymidine. In preferred manner, it is the PAK 26 strain (Δ guaBguaA::Δdeo-11 ΔthyA::erm Δ (udp-metE) zif9::Tn10) is auxotrophic for methionine, guanine and thymidine. • (ii) transfer of the exogenous DNA, preferably in the form of an expression vector, into the bacterium, the exogenous DNA being capable of comprising a sequence coding for a deoxyribosyltransferase I or II. • (iii) culture of the bacteria obtained in Stage (ii) on a medium containing deoxyguanosine, then determination of whether the bacteria are growing or not. If the bacteria are growing, then the exogenous DNA codes for a deoxyribosyltransferase II activity which is expressed in said bacterium. If the bacteria are not growing, then the exogenous DNA is capable of coding for a deoxyribosyltransferase I activity. Other characteristics and advantages of the invention are clear from the rest of the description, with examples represented hereafter. […]

PAK 6 strain = assay: Growth of the PAK 6 strain on a glucose mineral medium (in vivo nutritional screening); format: cell-based, Escherichia coli; design: key: (+) growth; (−) absence of growth; conditions: for Growth of the PAK 6 strain, A: glucose mineral medium with adenine; for Growth of the PAK 6 strain, dG + A: glucose mineral medium with deoxyguanosine + adenine; for Growth of the PAK 6 strain, G: glucose mineral medium with guanine
Text: A functional screening allowing the production of guanine to be selected was established on E. coli by deleting the two genes of the guaBA operon which controls the conversion of IMP into XMP then into GMP and also those of the deoCABD operon which controls the degradation of deoxynucleosides to give the PAK 6 strain. The E. coli genome specifies an activity allowing the base G to be converted into GMP (guanine phosphoribosyltransferase encoded by the gpt gene), and also an activity allowing the base G to be released from the dR-G deoxynucleoside (purine nucleoside phosphorylase encoded by the deoD gene in the deo operon). The PAK 6 strain thus has a requirement for guanine (G) which cannot be satisfied by the addition of deoxyguanosine (dR-G). The use of deoxyguanosine (dR-G) can however be selected if an N-deoxyribosyltransferase activity is expressed in the PAK6 strain in order to carry out the exchange: dR-G+A<->dR-A+G.
This exchange between two purine bases can be catalyzed by the two enzyme classes.
DNA fragments of a size comprised between 1 and 2 kb obtained by partial digestion (AluI) of L. helveticus CNRZ 32 were ligated in a ColE1 plasmid (of pUC type digested by SmaI and desphosphorylated) and the mixture is used to transform the PAK6 strain. The transforming clones were selected in a glucose mineral medium to which deoxyguanosine (dR-G) and adenine (A) have been added to the final concentration of 0.3 mM.

[1] = test system: N-deoxyribosyltransferase activity; assay: Enzymatic activity of corresponding raw extracts (in vitro); format: biochemical; design: key: (+) growth; (−) absence of growth; conditions: for Enzymatic activity of raw extracts, dC + A: substrates deoxycytidine + adenine; for Enzymatic activity of raw extracts, dC + T: substrates deoxycytidine + thymine; for Enzymatic activity of raw extracts, dG + A: substrates deoxyguanosine + adenine

Molecule | Class of N-deoxyribosyltransferase activity (I or II) (PAK 26 strain) | Growth of the PAK 6 strain, A (PAK 6 strain) | Growth of the PAK 6 strain, dG + A (PAK 6 strain) | Growth of the PAK 6 strain, G (PAK 6 strain) | Enzymatic activity of raw extracts, dC + A [1] | Enzymatic activity of raw extracts, dC + T [1] | Enzymatic activity of raw extracts, dG + A [1]
ptd Lh: N-deoxyribosyltransferase of SEQ ID No. 4 coded by the ptd Lh gene of Lactobacillus helveticus (purine deoxyribosyltransferase) (protein, Lactobacillus helveticus PTD) MKAVVPTGKIYLGSPFYSDAQRERAAKAKELLAKNLSIAHVFFPFDDGFTDPDEKNPEIGGIRSMVWRDATYQNDLTGISNATCGVFLYDMDQLDDGSAFEIGFMRAMHKPVILVPFTEHPEKEKKMNLMIAQGVTTIIDGNTEFEKLADYNFNECPFNPVRGYGIY | Class I N-deoxyribosyltransferase activity | − | + | + | − | − | +
ntd Lh: N-deoxyribosyltransferase of SEQ ID No. 2 (or SEQ ID No. 14) coded by the ntd Lh gene of Lactobacillus helveticus (protein, Lactobacillus helveticus NTD) MNKKKTLYFGAGWFNEKQNKAYKEAMAALKENPTVDLENSYVPLENQYKGIRIDEHPEYLHNIEWASATYHNDLVGIKTSDVMLGVYLPEEEDVGLGMELGYALSQGKYILLVIPDEDYGKPINLMSWGVCDNAIKISELKDFDFNKPRYNFYDGAVY | Class II N-deoxyribosyltransferase activity | − | + | + | + | + | +
ntd: N-deoxyribosyltransferase of SEQ ID No. 6 coded by the ntd Lf gene of Lactobacillus fermentum (protein, Lactobacillus fermentum NTD) LKNTDPVANTKIYLATSFFNEEQRARIPQALAQLEANPTVGVVHQPFDFQYKDARVDSDPAGVFGSLEWQIATYNNDLNAVGTSDVCVALYDMDQIDEGICMEIGMFVALHKPIVLLPFTKKDKSAYEANLMLARGVTTWLEPNDFSPLKDFNFNHPMAQPFPPFKVF | Class II N-deoxyribosyltransferase activity | − | + | + | + | + | +
